Test results taken from article PMC5587609.
Blank lines part the entries; values can stand above or below the substance they belong to.

Assays:
[1] = biological target: TRPV6* (rat TRPV6 residues 1–668 with I62Y, L92N and M96Q; L495Q reverted to the native leucine) (rat) (UniProt Q9R186); test: SEC; FSEC traces of purified protein following tryptophan fluorescence; elution time corresponding to the tetrameric assembly
[2] = biological target: TRPV6* (rat TRPV6 residues 1–668 with I62Y, L92N and M96Q; L495Q reverted to the native leucine) (rat) (UniProt Q9R186); test: crystal structure; hanging drop, 20–24% PEG 350 MME, 50 mM NaCl, 50 mM Tris-HCl pH 8.0–8.5, 20 °C; also with 10 mM CaCl2 or 1 mM GdCl3; homotetramer
[3] = biological target: TRPV6_(cryst) (rat TRPV6 residues 1–668 with I62Y, L92N, M96Q and L495Q) (rat) (UniProt Q9R186); test: as above
[4] = biological target: TRPV6*-del4 (TRPV6* with ten residues, 471–480, deleted in the S4–S5 linker) (rat) (UniProt Q9R186); test: SEC; FSEC traces of purified protein following tryptophan fluorescence; elution time corresponding to the tetrameric assembly
[5] = biological target: TRPV6*-del2 (TRPV6* with six residues, 475–480, deleted in the S4–S5 linker) (rat) (UniProt Q9R186); test: as above
[6] = biological target: TRPV6*-del1 (TRPV6* with four residues, 477–480, deleted in the S4–S5 linker) (rat) (UniProt Q9R186); test: as above
[7] = biological target: TRPV6*-del3 (TRPV6* with eight residues, 473–480, deleted in the S4–S5 linker) (rat) (UniProt Q9R186); test: as above

Substance: TRPV6* (rat TRPV6 residues 1–668 with I62Y, L92N and M96Q; L495Q reverted to the native leucine) (from UniProt Q9R186 1-668)
stoichiometry N [1]: 4 | stoichiometry N [2]: 4

Substance: TRPV6*-del4 (TRPV6* with ten residues, 471–480, deleted in the S4–S5 linker) (from UniProt Q9R186 1-668)
stoichiometry N [4]: 4

Substance: TRPV6*-del2 (TRPV6* with six residues, 475–480, deleted in the S4–S5 linker) (from UniProt Q9R186 1-668)
stoichiometry N [5]: 4

Substance: TRPV6*-del3 (TRPV6* with eight residues, 473–480, deleted in the S4–S5 linker) (from UniProt Q9R186 1-668)
stoichiometry N [7]: 4

More lines, now with the values ahead:

stoichiometry N [3]: 4
Substance: TRPV6_(cryst) (rat TRPV6 residues 1–668 with I62Y, L92N, M96Q and L495Q) (from UniProt Q9R186 1-668)

stoichiometry N [6]: 4
Substance: TRPV6*-del1 (TRPV6* with four residues, 477–480, deleted in the S4–S5 linker) (from UniProt Q9R186 1-668)
